Assay type in all cases: cell-based, human
Data set [1] concerns N-SMase. Description: Neutral sphingomyelinase activity in cell extracts, [14C]sphingomyelin substrate. Conditions: for Neutral SMase activity: MG-63 WT 2.7, L-3 LacZ/sham 2.1. How it is done:
Confluent culture of cells were harvested, washed, and pellets lysed in buffer containing 0.1% Triton™ X-100, 25 mM Tris (pH 7.4) buffer, 5 mM EDTA, 1 mM phenylmethylsulfonylfluoride and 2 μg each of chymostatin, leupeptin, antipain, and pepstatin A. The activity levels of acid and neutral sphingomyelinase were measured in cell extracts (100 μg protein) in duplicate as described previously employing […] as the substrate.
Activities of A-SMase and N-SMase were also measured according to methods described in Chatterjee, S. and Ghosh, N. (1996) Glycobiology 6:303–311, incorporated herein by reference, with minor modifications. In brief, 5×10^6 MG63 cells were scraped from the culture plates, washed with PBS, and disrupted by repeated passage through a 25-gauge needle. Nuclei and cell debris were pelleted at 800×g for 5 min. Supernatant fluid was collected, and the protein concentration was measured using the Bio-Rad (Hercules, Calif.) protein detection kit. To measure SMase activity, 50 μg of protein was incubated for 90 min (the reaction was linear for up to 120 min) at 37° C. in buffer (200 μl final volume) containing 250 mM sodium acetate and 1 mM EDTA, pH 5.0, for A-SMase or 250 mM Tris-Cl, pH 7.4, with or without 6 mM MgCl2 for N-SMase, and 0.75 μl of [methyl-^14C]sphingomyelin (SM) (0.2 mCi/ml; 56.6 mCi/mmol). Radioactive phosphocholine produced from [^14C]SM was extracted with 800 μl of chloroform-methanol (2:1, vol/vol) and 100 μl of H2O. [^14C]phosphocholine in the aqueous phase was measured by scintillation counting.

The next data set deals with MG-63 cells. Put plainly: Apoptosis by DAPI staining and counting of apoptotic cells. Conditions: for Apoptosis in response to TNF-α and Fas-L: cells with ribozyme-induced deficiency of N-SMase, TNF-α 20 ng/ml, Fas-L 1 ng/ml, 24 hr. How it is done: FIG. 6 depicts a quantitative analysis of the effects of TNF-α, C2-Ceramide and Fas-ligand on apoptosis in mutant (CC) and WT (MG-63) cells, as well as wild type/mock transfected cells. Cells were grown on glass cover slips and incubated for 24 hours with TNF-α (20 ng/ml), cell-permeable ceramide (C2-Ceramide) (10 ng/ml) or Fas-L (1 ng/ml). Cells were fixed and stained with DAPI and photographed at 50× magnification. Apoptotic cells were counted using a hemocytometer. The basal levels of apoptotic cells were: MG-63 (3%); L-3 (3%); and CC (2.8%). Errors bars indicate ±S.D. (N=2).
WT (MG-63), LacZ (L-3) and mutant (CC) cells were grown on glass cover slips and incubated for 24 hr with TNF-α (20 ng/ml), cell-permeable ceramide (C2-ceramide) (10 ng/ml) or Fas-L (1 ng/ml). Cells were fixed and stained with DAPI stain and photographed (50×). Apoptotic cells were counted using a hemocytometer and compared to total cell counts per field. Basal levels of apoptosis were 3% untransfected, 3% control transfection, and 2.8% ribozyme transfection.

Data set [2] deals with caspase-3 and cytochrome-C release. Put plainly: Caspase-3 and cytochrome-C release by western analysis and densitometry. The note with it: N-SMase-deficient cells compared to control (sham-transfected) cells. How it is done: In order to determine a dose-response relationship between the concentration of TNF-α or FasL and apoptosis, western analysis was used to quantitate release of both caspase-3 (FIG. 9) and cytochrome-C (FIG. 10).
Immunoblots for the measurement of cytochrome-C and caspase-3 were carried out after incubation of cells with TNF-α (10 ng/ml) or FasL (1 ng/ml) for 48 hours. Cells were extracted with a buffer (20 mM Hepes pH 7.5, 10 mM KCl, 1.5 mM MgCl2, 5 mM EDTA, 5 mM DTT, 2 mM phenylmethylsulfonylfluoride, 1% NonidetP40, 0.5% sodium deoxycholate, 0.1% SDS, 2 μg/ml leupeptin, 2 μg/ml aprotinin, 0.5 μg/ml benzamindine, and 250 mM sucrose) on ice for 30 minutes. After centrifugation for 10 minutes at 10,000×g, the supernatant was used for western analysis with an antibody for cytochrome-C (Pharmingen, San Diego, Calif.). For assessment of caspase-3, samples were similarly processed in addition to passage through a 21-g needle prior to centrifugation. The western analysis was performed with a rabbit polyclonal IgG antibody to caspase-3 (Santa Cruz, Calif.) raises against an epitope corresponding to amino acids 1–277, representing the full-length precursor form of CPP-32 (caspase-3). For both caspase-3 and cytochrome-C, bands were quantified with densitometric analysis.

For data set [3], the system named is ceramide production by N-SMase. Put plainly: Ceramide level, modified diacylglycerol kinase assay. The note with it: for Production of ceramide in response to cytokine stimulation: ribozyme-transfected (N-SMase-deficient) cells compared to sham transfected cells, TNF-α 20 ng/ml or Fas-L 1 ng/ml, 24 hours.
The subject of data set [4] is N-SMase. Description: N-SMase activity gel analysis of partially purified preparations. The note with it: CC mutant cells compared to control cells, FIG. 2. How it is done: FIG. 2 depicts N-SMase activity in mutant and WT cells, as determined using gel analysis. Partially purified preparations of the MG-63 (WT) cell line and the mutant cell line CC were subjected to 7.5% polyacrylamide gel electrophoresis at 4° C. employing sodium lauryl sarcosine as the detergent. The gel was calibrated with pre-stained protein molecular weight standards (phosphorylase B, bovine serum albumin (BSA), and ovalbumin). Gel slices were excised and subjected to an N-SMase assay employing […] as the substrate.
N-SMase activity in mutant and WT cells (subjected to detergent extraction as described above), was determined using gel analysis. Partially purified preparations of the MG-63 (WT) cell line and the mutant cell line CC were subjected to 7.5% polyacrylamide gel electrophoresis at 4° C. employing sodium lauryl sarcosine as the detergent. The gel was calibrated with pre-stained protein molecular weight standards (phosphorylase B, bovine serum albumin (BSA), and ovalbumin; Bio-Rad). Gel slices were excised, transferred to glass tubes, and subjected to an N-SMase assay at pH 7.4 employing […] as the substrate.

Data set [5] deals with N-SMase. Put plainly: Immunocytochemical analysis of cells, N-SMase antibody. The note with it: clone CC compared to untransfected (WT) and sham-transfected (LacZ) lines. How it is done: Wild-type (WT) MG-63 cells and MG-63 cells transfected with LacZ constructs (L-3) and ribozyme expression constructs for the inhibition of N-SMase expression (CC) were analyzed by immunocytochemistry. The antibodies either recognized epitopes in fibronectin (control) or N-SMase. The analysis was performed in duplicates for the MG-63 cell line and the two mutant colonies.

This is an account of results in patent US7230094B2, “Neutral sphingomyelinase antisense ribozyme and uses thereof” (priority 2001, dated 2007).

B1: N-SMase ribozyme: U1 snRNA-derived hammerhead antisense ribozyme targeting N-SMase mRNA, expressed from vector pNSMRz; stably transfected MG63 clones CC and C-B (nucleic acid, listed as Homo sapiens)
chain: AUACUUACCUGGCAGGGGAGAUACCAUGAUCACGAAGGUGGUUUUCCCAGGGCGAGGCUUAUCCAUUGGCCUCCGGAUGUGCUGACCCCUGCGAUUUCCCCAAAUGUGGGAAACUCGACUGCAGAAUAUGUCAUCAUAUUGCCUGAUGAGUCCGUGAGGACGAAACCUCUUCACAUGAAAAAGUGGGGCUGCGUUCGCGCUUCCCCG
Consider B1, for which the “Neutral SMase activity” value worked out at 1.0 nmol/mg protein/hr with N-SMase [1] (MG-63 clone C-B (ribozyme-transfected mutant), average of two batches) and 0.67 nmol/mg protein/hr in the data set with N-SMase [1] (MG-63 clone CC (ribozyme-transfected mutant), average of two batches of cell pellets). In addition, the “Reduction in N-SMase activity” value in the data set with N-SMase [1] (ribozyme-transfected cells compared to sham-transfected and untransfected controls) is listed as “three-fold reduction”. Moreover, in the data set with MG-63 cells (CC (ribozyme transfection), DAPI, 3% untransfected, 3% control transfection), the “Basal level of apoptotic cells” value came to 2.8%. The “Apoptosis in response to TNF-α and Fas-L” value with MG-63 cells is reported as “marked hyporesponsiveness”; in the data set with MG-63 cells (listed as antisense ribozyme), “not altered”; in the data set with MG-63 cells (listed as ribozyme), “marked resistance to apoptosis”. Moreover, the “Dose-response of caspase-3 and cytochrome-C release to TNF-α and FasL” value in data set [2] is listed as “marked blunting of the response”. Moreover, the entries for the “Production of ceramide in response to cytokine stimulation” value in data set [3] (listed as antisense ribozyme) and in data set [3] (listed as ribozyme) were “substantially no change” and “severely reduced”, respectively. The “Basal level of ceramide production” value in data set [3] (ribozyme-transfected CC cells, 2.63 in MG-63 control cells) stood at 4.59 pmole/mg protein. The “Level of N-SMase activity in gel slices” value in the data set on N-SMase [4] is reported as “greatly reduced”. Further, the “Immunohistochemical staining for N-SMase” value with N-SMase [5] is listed as “near absence”.
